Data reported in US20180155451A1 (published 2018).

T1: FcγRIIb (human, UniProt P31994 43-217)
T1 construct: extracellular domain; also called 2b; FcgRIIb
T1 sequence (looked up): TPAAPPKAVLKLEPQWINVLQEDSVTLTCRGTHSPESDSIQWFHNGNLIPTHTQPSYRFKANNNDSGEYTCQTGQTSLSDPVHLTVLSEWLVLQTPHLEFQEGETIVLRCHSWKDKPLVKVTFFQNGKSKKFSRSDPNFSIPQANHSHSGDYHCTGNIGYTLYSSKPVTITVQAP

B1: GpH7-B3 variant K326_20W/GpL16-k0 (antibody, human IgG1, kappa)
heavy: not shown
light: DIVMTQSPLSLPVTPGEPASISCQASESLVHSNRNTYLHWYLQKPGQSPQLLIYKVSNRFSGVPDRFSGSGSGTDFTLKISRVEAEDVGVYYCSQNTHVPPTFGQGTKVEIERTVAAPSVFIFPPSDEQLKSGTASVVCLLNNFYPREAKVQWKVDNALQSGNSQESVTEQDSKDSTYSLSSTLTLSKADYEKHKVYACEVTHQGLSSPVTKSFNRGEC
notes: also called Ho Ab K326_20W
B2: GpH7-B3 variant L234_10E/GpL16-k0 (antibody, human IgG1, kappa)
heavy: not shown
light: B1 light
notes: also called Ho Ab L234_10E
B3: GpH7-B3 variant N325_13S/GpL16-k0 (antibody, human IgG1, kappa)
heavy: not shown
light: B1 light
notes: also called Ho Ab N325_13S
B4: GpH7-B3 variant S239_10E/GpL16-k0 (antibody, human IgG1, kappa)
heavy: not shown
light: B1 light
notes: also called Ho Ab S239_10E
B5: GpH7-B3 variant P331_07I/GpL16-k0 (antibody, human IgG1, kappa)
heavy: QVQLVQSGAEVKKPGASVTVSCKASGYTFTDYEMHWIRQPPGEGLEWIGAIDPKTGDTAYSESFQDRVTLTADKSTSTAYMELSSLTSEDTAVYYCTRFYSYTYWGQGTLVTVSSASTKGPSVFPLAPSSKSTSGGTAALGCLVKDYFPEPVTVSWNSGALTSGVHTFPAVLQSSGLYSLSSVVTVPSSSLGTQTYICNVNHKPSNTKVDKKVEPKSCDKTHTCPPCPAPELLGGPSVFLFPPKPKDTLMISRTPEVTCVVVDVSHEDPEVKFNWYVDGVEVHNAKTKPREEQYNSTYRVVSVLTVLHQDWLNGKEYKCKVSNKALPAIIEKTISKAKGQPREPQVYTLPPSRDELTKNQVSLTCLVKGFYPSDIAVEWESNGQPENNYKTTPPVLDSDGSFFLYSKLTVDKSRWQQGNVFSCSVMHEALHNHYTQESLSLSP
light: B1 light
notes: also called Ho Ab P331_07I
B6: GpH7-B3 variant P331_03V/GpL16-k0 (antibody, human IgG1, kappa)
heavy: not shown
light: B1 light
notes: also called Ho Ab P331_03V
B7: GpH7-B3 variant S337_16H/GpL16-k0 (antibody, human IgG1, kappa)
heavy: not shown
light: B1 light
notes: also called Ho Ab S337_16H
B8: GpH7-B3 variant N325_03V/GpL16-k0 (antibody, human IgG1, kappa)
heavy: not shown
light: B1 light
notes: also called Ho Ab N325_03V
B9: GpH7-B3 variant S337_07I/GpL16-k0 (antibody, human IgG1, kappa)
heavy: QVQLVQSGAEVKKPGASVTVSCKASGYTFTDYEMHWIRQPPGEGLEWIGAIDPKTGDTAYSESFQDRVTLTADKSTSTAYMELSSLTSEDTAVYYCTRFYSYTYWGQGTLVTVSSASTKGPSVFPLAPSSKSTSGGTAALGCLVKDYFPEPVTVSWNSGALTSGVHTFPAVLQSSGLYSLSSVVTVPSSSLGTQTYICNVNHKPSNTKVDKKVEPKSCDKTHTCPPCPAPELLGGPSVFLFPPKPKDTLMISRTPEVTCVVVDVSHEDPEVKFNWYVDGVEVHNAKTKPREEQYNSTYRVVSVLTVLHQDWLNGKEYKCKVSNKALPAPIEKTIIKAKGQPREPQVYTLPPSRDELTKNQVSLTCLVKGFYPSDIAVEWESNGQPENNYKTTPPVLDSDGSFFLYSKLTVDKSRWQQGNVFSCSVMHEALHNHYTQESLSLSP
light: B1 light
notes: also called Ho Ab S337_07I
B10: GpH7-B3 variant L235_04F/GpL16-k0 (antibody, human IgG1, kappa)
heavy: not shown
light: B1 light
notes: also called Ho Ab L235_04F
B11: GpH7-B3 variant S337_20W/GpL16-k0 (antibody, human IgG1, kappa)
heavy: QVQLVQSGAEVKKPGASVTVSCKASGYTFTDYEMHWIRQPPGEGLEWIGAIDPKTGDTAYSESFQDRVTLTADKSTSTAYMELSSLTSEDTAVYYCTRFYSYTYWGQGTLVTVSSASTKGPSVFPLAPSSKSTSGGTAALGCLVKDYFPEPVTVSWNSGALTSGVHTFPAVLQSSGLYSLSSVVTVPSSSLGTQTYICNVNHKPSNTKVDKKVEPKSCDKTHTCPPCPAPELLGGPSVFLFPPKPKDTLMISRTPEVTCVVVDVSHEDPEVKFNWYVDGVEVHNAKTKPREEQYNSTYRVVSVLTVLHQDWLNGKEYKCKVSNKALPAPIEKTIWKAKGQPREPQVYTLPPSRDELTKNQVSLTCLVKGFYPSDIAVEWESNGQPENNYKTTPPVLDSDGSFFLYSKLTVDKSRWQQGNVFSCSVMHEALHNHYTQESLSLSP
light: B1 light
notes: also called Ho Ab S337_20W
B12: GpH7-B3 variant P331_10E/GpL16-k0 (antibody, human IgG1, kappa)
heavy: not shown
light: B1 light
notes: also called Ho Ab P331_10E
B13: GpH7-B3 variant S267_01G/GpL16-k0 (antibody, human IgG1, kappa)
heavy: not shown
light: B1 light
notes: also called Ho Ab S267_01G
B14: GpH7-B3 variant L235_15Y/GpL16-k0 (antibody, human IgG1, kappa)
heavy: not shown
light: B1 light
notes: also called Ho Ab L235_15Y
B15: GpH7-B3 variant P331_15Y/GpL16-k0 (antibody, human IgG1, kappa)
heavy: not shown
light: B1 light
notes: also called Ho Ab P331_15Y
B16: GpH7-B3 variant S239_03V/GpL16-k0 (antibody, human IgG1, kappa)
heavy: not shown
light: B1 light
notes: also called Ho Ab S239_03V
B17: GpH7-B3 variant S337_15Y/GpL16-k0 (antibody, human IgG1, kappa)
heavy: not shown
light: B1 light
notes: also called Ho Ab S337_15Y
B18: GpH7-B3 variant L234_09D/GpL16-k0 (antibody, human IgG1, kappa)
heavy: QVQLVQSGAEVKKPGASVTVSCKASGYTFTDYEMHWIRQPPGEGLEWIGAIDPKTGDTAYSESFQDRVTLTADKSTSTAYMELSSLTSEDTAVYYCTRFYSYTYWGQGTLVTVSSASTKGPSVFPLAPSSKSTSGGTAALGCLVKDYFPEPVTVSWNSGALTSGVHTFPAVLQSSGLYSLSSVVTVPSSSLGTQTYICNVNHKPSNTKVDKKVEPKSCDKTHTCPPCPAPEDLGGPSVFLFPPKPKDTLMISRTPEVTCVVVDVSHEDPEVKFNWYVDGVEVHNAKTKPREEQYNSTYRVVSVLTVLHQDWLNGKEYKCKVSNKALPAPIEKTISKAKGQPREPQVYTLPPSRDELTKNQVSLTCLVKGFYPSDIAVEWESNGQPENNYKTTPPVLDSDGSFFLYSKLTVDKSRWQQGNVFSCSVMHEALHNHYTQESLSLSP
light: B1 light
notes: also called Ho Ab L234_09D
B19: GpH7-B3 variant N325_04F/GpL16-k0 (antibody, human IgG1, kappa)
heavy: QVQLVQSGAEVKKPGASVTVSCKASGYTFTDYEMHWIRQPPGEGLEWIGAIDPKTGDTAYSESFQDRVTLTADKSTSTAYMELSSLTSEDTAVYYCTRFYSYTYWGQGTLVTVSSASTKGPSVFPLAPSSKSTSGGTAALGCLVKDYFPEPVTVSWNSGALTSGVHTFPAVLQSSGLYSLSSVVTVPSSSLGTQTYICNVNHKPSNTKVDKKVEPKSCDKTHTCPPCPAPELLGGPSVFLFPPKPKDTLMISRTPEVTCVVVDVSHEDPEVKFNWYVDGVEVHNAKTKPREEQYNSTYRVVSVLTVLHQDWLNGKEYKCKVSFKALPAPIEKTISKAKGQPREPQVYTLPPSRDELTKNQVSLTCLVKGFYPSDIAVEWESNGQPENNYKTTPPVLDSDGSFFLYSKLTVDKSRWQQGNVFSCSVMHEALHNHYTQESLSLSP
light: B1 light
notes: also called Ho Ab N325_04F
B20: GpH7-B3 variant L328_10E/GpL16-k0 (antibody, human IgG1, kappa)
heavy: not shown
light: B1 light
notes: also called Ho Ab L328_10E
B21: GpH7-B3 variant L328_13S/GpL16-k0 (antibody, human IgG1, kappa)
heavy: not shown
light: B1 light
notes: also called Ho Ab L328_13S
B22: GpH7-B3 variant S337_08L/GpL16-k0 (antibody, human IgG1, kappa)
heavy: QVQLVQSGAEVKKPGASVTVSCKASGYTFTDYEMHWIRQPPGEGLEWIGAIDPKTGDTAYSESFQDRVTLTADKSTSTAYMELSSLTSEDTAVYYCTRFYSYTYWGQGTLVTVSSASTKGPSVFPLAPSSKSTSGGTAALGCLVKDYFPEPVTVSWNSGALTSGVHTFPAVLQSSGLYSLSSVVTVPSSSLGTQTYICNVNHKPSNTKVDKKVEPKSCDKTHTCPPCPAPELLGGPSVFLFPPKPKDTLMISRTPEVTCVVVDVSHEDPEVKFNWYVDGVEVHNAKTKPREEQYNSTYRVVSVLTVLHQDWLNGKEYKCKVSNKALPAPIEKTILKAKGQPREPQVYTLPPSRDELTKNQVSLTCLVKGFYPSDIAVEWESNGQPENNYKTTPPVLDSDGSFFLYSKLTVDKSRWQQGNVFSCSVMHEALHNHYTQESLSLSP
light: B1 light
notes: also called Ho Ab S337_08L
B23: GpH7-B3 variant P238_09D/GpL16-k0 (antibody, human IgG1, kappa)
heavy: not shown
light: B1 light
notes: also called Ho Ab P238_09D
B24: GpH7-B3 variant T335_10E/GpL16-k0 (antibody, human IgG1, kappa)
heavy: not shown
light: B1 light
notes: also called Ho Ab T335_10E
B25: GpH7-B3 variant L328_09D/GpL16-k0 (antibody, human IgG1, kappa)
heavy: not shown
light: B1 light
notes: also called Ho Ab L328_09D
B26: GpH7-B3 variant P331_06M/GpL16-k0 (antibody, human IgG1, kappa)
heavy: not shown
light: B1 light
notes: also called Ho Ab P331_06M
B27: GpH7-B3 variant P238_19Q/GpL16-k0 (antibody, human IgG1, kappa)
heavy: not shown
light: B1 light
notes: also called Ho Ab P238_19Q
B28: GpH7-B3 variant N325_07I/GpL16-k0 (antibody, human IgG1, kappa)
heavy: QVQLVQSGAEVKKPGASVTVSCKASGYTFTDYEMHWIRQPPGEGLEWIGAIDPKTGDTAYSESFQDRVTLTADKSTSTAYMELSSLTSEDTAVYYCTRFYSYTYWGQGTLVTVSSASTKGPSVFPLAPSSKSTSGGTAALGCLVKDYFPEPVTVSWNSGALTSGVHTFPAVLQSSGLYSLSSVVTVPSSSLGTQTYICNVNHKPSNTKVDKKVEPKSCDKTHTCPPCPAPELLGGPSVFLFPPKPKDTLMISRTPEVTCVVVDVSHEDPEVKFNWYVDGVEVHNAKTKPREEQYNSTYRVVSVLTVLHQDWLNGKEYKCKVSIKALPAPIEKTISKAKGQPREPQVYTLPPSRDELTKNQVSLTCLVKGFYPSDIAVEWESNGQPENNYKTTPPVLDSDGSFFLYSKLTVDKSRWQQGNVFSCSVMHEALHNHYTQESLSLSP
light: B1 light
notes: also called Ho Ab N325_07I
B29: GpH7-B3 variant N325_09D/GpL16-k0 (antibody, human IgG1, kappa)
heavy: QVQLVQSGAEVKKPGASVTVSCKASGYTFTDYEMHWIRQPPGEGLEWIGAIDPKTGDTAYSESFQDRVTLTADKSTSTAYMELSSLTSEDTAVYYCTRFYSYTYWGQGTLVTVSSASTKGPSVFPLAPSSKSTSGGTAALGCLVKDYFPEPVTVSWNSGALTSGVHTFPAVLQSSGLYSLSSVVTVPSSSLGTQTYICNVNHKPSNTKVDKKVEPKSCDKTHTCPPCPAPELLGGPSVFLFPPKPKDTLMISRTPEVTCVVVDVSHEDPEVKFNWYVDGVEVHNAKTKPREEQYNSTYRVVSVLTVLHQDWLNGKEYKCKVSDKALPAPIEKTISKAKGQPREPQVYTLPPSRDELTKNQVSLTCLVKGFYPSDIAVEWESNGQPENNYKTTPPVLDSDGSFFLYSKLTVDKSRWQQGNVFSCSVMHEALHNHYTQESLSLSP
light: B1 light
notes: also called Ho Ab N325_09D
B30: GpH7-B3 variant P331_20W/GpL16-k0 (antibody, human IgG1, kappa)
heavy: not shown
light: B1 light
notes: also called Ho Ab P331_20W
B31: GpH7-B3 variant P271_09D/GpL16-k0 (antibody, human IgG1, kappa)
heavy: not shown
light: B1 light
notes: also called Ho Ab P271_09D
B32: GpH7-B3 variant P238_15Y/GpL16-k0 (antibody, human IgG1, kappa)
heavy: not shown
light: B1 light
notes: also called Ho Ab P238_15Y
B33: GpH7-B3 variant P331_16H/GpL16-k0 (antibody, human IgG1, kappa)
heavy: not shown
light: B1 light
notes: also called Ho Ab P331_16H
B34: GpH7-B3 variant S267_19Q/GpL16-k0 (antibody, human IgG1, kappa)
heavy: not shown
light: B1 light
notes: also called Ho Ab S267_19Q
B35: GpH7-B3 variant N325_06M/GpL16-k0 (antibody, human IgG1, kappa)
heavy: not shown
light: B1 light
notes: also called Ho Ab N325_06M
B36: GpH7-B3 variant L235_09D/GpL16-k0 (antibody, human IgG1, kappa)
heavy: not shown
light: B1 light
notes: also called Ho Ab L235_09D
B37: GpH7-B3 variant P238_10E/GpL16-k0 (antibody, human IgG1, kappa)
heavy: not shown
light: B1 light
notes: also called Ho Ab P238_10E
B38: GpH7-B3 variant S239_05P/GpL16-k0 (antibody, human IgG1, kappa)
heavy: not shown
light: B1 light
notes: also called Ho Ab S239_05P
B39: GpH7-B3 variant P238_03V/GpL16-k0 (antibody, human IgG1, kappa)
heavy: not shown
light: B1 light
notes: also called Ho Ab P238_03V
B40: GpH7-B3 variant P238_16H/GpL16-k0 (antibody, human IgG1, kappa)
heavy: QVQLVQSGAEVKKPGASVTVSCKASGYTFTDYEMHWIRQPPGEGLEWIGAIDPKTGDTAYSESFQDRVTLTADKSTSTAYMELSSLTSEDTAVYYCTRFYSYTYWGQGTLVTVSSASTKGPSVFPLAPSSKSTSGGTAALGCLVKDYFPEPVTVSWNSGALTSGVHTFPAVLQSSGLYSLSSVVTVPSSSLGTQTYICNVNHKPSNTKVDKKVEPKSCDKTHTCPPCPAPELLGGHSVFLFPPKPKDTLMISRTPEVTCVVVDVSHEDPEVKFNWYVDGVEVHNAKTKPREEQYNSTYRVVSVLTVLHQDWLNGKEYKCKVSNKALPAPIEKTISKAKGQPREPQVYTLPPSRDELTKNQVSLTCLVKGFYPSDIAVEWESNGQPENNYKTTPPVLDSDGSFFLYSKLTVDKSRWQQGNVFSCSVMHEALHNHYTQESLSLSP
light: B1 light
notes: also called Ho Ab P238_16H
B41: GpH7-B3 variant S337_18N/GpL16-k0 (antibody, human IgG1, kappa)
heavy: not shown
light: B1 light
notes: also called Ho Ab S337_18N
B42: GpH7-B3 variant S239_06M/GpL16-k0 (antibody, human IgG1, kappa)
heavy: not shown
light: B1 light
notes: also called Ho Ab S239_06M
B43: GpH7-B3 variant L235_20W/GpL16-k0 (antibody, human IgG1, kappa)
heavy: not shown
light: B1 light
notes: also called Ho Ab L235_20W
B44: GpH7-B3 variant P238_04F/GpL16-k0 (antibody, human IgG1, kappa)
heavy: not shown
light: B1 light
notes: also called Ho Ab P238_04F
B45: GpH7-B3 variant S324_06M/GpL16-k0 (antibody, human IgG1, kappa)
heavy: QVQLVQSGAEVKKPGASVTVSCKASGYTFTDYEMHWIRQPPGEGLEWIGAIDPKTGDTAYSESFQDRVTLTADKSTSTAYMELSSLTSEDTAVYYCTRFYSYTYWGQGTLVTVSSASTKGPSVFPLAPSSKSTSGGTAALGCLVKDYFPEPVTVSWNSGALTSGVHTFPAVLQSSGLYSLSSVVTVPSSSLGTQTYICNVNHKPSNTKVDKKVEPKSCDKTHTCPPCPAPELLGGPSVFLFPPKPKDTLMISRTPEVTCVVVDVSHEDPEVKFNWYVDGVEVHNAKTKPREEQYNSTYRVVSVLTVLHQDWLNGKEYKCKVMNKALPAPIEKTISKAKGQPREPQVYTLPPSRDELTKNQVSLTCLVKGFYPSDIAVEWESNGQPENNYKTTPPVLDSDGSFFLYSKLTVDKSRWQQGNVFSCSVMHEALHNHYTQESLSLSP
light: B1 light
notes: also called Ho Ab S324_06M
B46: GpH7-B3 variant S298_06M/GpL16-k0 (antibody, human IgG1, kappa)
heavy: not shown
light: B1 light
notes: also called Ho Ab S298_06M
B47: GpH7-B3 variant L234_20W/GpL16-k0 (antibody, human IgG1, kappa)
heavy: not shown
light: B1 light
notes: also called Ho Ab L234_20W
B48: GpH7-B3 variant N325_01G/GpL16-k0 (antibody, human IgG1, kappa)
heavy: not shown
light: B1 light
notes: also called Ho Ab N325_01G
B49: GpH7-B3 variant N325_20W/GpL16-k0 (antibody, human IgG1, kappa)
heavy: not shown
light: B1 light
notes: also called Ho Ab N325_20W
B50: GpH7-B3 variant L328_02A/GpL16-k0 (antibody, human IgG1, kappa)
heavy: not shown
light: B1 light
notes: also called Ho Ab L328_02A
B51: GpH7-B3 variant P238_06M/GpL16-k0 (antibody, human IgG1, kappa)
heavy: not shown
light: B1 light
notes: also called Ho Ab P238_06M
B52: GpH7-B3 variant N325_08L/GpL16-k0 (antibody, human IgG1, kappa)
heavy: not shown
light: B1 light
notes: also called Ho Ab N325_08L
B53: GpH7-B3 variant S267_06M/GpL16-k0 (antibody, human IgG1, kappa)
heavy: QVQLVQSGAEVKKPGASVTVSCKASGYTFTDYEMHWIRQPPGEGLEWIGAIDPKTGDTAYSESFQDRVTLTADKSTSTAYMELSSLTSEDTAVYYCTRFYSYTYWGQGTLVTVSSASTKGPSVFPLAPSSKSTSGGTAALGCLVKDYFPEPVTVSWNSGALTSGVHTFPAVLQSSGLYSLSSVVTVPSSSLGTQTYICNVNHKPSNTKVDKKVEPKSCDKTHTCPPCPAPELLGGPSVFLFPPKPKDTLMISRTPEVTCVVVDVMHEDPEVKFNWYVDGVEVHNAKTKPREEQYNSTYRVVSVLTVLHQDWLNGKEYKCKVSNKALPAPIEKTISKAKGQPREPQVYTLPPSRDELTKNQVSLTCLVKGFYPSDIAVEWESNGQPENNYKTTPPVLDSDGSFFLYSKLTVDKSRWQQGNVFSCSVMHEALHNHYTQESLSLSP
light: B1 light
notes: also called Ho Ab S267_06M
B54: GpH7-B3 variant P238_20W/GpL16-k0 (antibody, human IgG1, kappa)
heavy: not shown
light: B1 light
notes: also called Ho Ab P238_20W
B55: GpH7-B3 variant P271_10E/GpL16-k0 (antibody, human IgG1, kappa)
heavy: not shown
light: B1 light
notes: also called Ho Ab P271_10E
B56: GpH7-B3 variant T335_07I/GpL16-k0 (antibody, human IgG1, kappa)
heavy: not shown
light: B1 light
notes: also called Ho Ab T335_07I

target: T1, FcγRIIb; test: SPR (Biacore), binding relative to GpH7-B3/GpL16-k0 = 100
Description: Analysis of interaction between objective antibody and the FcγR was carried out using Biacore T100 (GE Healthcare). HBS-EP+ (GE Healthcare) was used as the running buffer, and the measurement temperature was set to 25° C. Chips produced by immobilizing the antigen peptide by the amine coupling method to a Series S Sencor Chip CM5 (GE Healthcare), or alternatively, chips produced by allowing preliminarily biotinylated antigen peptides to interact with and immobilize onto a Series S Sensor Chip SA (certified) (GE Healthcare) were used. Antibodies of interest were captured onto an antigen peptide-immobilized chip, and allowed to interact to each FcγR diluted with running buffer. To regenerate and repeatedly use the chip, the antibodies captured on the chip were washed off by reacting 10 mM glycine-HCl, pH 1.5.
The FcγR-binding activity of each antibody was assessed primarily using as an indicator the FcγR-binding activity and dissociation constant for FcγR.

Ho/Con_2b	Binder
132 % of control	B1
54.9 % of control	B2
159 % of control	B3
175 % of control	B4
63.3 % of control	B5
86.6 % of control	B6
103 % of control	B7
31.8 % of control	B8
96.6 % of control	B9
111 % of control	B10
99.6 % of control	B11
92.3 % of control	B12
97 % of control	B13
127 % of control	B14
111 % of control	B15
108 % of control	B16
93.4 % of control	B17
68.5 % of control	B18
65.7 % of control	B19

Ho/Con_2b	Binder
146 % of control	B20
147 % of control	B21
90.7 % of control	B22
207 % of control	B23
108 % of control	B24
159 % of control	B25
71.5 % of control	B26
42.7 % of control	B27
88.2 % of control	B28
77 % of control	B29
111 % of control	B30
100 % of control	B31
114 % of control	B32
100 % of control	B33
185 % of control	B34
159 % of control	B35
78.7 % of control	B36
97.9 % of control	B37
61 % of control	B38

Ho/Con_2b	Binder
96.6 % of control	B39
18.8 % of control	B40
98 % of control	B41
84.3 % of control	B42
116 % of control	B43
209 % of control	B44
104 % of control	B45
101 % of control	B46
80.6 % of control	B47
20.2 % of control	B48
44 % of control	B49
117 % of control	B50
97.1 % of control	B51
106 % of control	B52
187 % of control	B53
12.6 % of control	B54
95 % of control	B55
104 % of control	B56
